# Data: patent US6531296
# Key:
# [1] = test system: QAg mutant with tyrosine 463 changed to phenylalanine
# [2] = test system: QAg mutant with tyrosine 450 changed to phenylalanine
# [3] = test system: QAg mutant with tyrosine 497 changed to phenylalanine
# [4] = test system: QAg, hexahistidine fusion protein of the carboxy-terminal 62 amino acids of Rak
# [5] = test system: QAg mutant with tyrosine 490 changed to phenylalanine
# Sequence of p50^csk, cytoplasmic tyrosine kinase CSK purified from baculovirus-infected insect cells (P41240 whole entry): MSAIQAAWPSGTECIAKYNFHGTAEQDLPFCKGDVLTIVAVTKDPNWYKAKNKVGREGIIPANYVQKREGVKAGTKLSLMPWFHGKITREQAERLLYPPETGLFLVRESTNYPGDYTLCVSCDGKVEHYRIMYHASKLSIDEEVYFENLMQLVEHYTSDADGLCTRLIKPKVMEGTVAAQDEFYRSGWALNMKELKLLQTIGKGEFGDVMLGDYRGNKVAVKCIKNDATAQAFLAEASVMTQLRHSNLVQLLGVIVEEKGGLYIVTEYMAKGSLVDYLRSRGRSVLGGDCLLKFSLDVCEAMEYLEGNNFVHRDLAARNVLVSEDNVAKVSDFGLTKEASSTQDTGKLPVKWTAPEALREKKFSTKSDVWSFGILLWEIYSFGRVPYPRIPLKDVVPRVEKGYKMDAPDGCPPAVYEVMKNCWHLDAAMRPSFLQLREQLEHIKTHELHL
substance,measurement,setting,value
"p50^csk, cytoplasmic tyrosine kinase CSK purified from baculovirus-infected insect cells",phosphorylation by CSK (in vitro kinase assay),[1],The mutant at position 463 was phosphorylated at levels equivalent to the wild-type peptide
same,phosphorylation by CSK (in vitro kinase assay) (fraction of wild-type peptide),[2],0.5
same,phosphorylation by CSK (in vitro kinase assay),[3],"Phosphorylation of the 497 mutant, however, was barely detectable"
same,phosphorylation by CSK (in vitro kinase assay),[4],This peptide was readily phosphorylated by CSK
same,phosphorylation by CSK (in vitro kinase assay) (fraction of wild-type peptide),[5],0.5
